Publication doi:10.1101/2020.05.21.107789
Read-outs that look alike come from different tables or passages of the source.

Assays:
[1] = target: TEAD4 (recombinant protein of the TR-FRET and SPR assays) (human); experiment: AlphaScreen or HTRF
[2] = target: N-terminally V5-tagged Asp272Ala^TEAD4 (full length) (human) (UniProt Q15561); experiment: co-IP
[3] = target: wt^Sd (Scalloped residues 223-440), N-biotinylated-Avitagged (Drosophila melanogaster) (UniProt P30052); experiment: SPR
[4] = target: TEAD4 (recombinant protein of the TR-FRET and SPR assays) (human); experiment: SPR
[5] = target: TEAD4 (recombinant protein of the TR-FRET and SPR assays) (human); experiment: SPR; remark: listed apart in the source

wt^Sd (Scalloped residues 223-440), N-biotinylated-Avitagged (Drosophila melanogaster), sequence (P30052 223-440): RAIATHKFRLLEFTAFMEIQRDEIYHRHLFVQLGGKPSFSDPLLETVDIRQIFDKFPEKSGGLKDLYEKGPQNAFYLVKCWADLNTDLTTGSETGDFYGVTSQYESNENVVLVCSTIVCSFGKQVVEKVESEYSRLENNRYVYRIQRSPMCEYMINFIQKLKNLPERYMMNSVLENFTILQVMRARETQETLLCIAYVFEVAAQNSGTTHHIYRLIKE
N-terminally V5-tagged Asp272Ala^TEAD4 (full length) (human), sequence (Q15561 whole entry D272A, the tested form may be a part): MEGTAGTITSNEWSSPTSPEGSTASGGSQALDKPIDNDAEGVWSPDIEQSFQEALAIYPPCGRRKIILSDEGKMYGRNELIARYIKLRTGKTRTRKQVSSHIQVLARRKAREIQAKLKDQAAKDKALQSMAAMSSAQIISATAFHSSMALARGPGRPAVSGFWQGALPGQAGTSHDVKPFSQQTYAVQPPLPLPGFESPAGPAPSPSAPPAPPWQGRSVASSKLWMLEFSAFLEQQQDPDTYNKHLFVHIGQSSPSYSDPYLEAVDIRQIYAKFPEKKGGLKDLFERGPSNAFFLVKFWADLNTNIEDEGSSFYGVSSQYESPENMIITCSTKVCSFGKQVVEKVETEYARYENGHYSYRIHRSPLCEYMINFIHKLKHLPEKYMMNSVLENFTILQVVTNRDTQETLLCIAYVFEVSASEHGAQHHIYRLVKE

| Molecule | IC50 [1] | Kd [4] | other results |
| --- | --- | --- | --- |
| VGLL3^140-154 (region of human VGLL3 aligned with the Ω-loop of Vg) (from UniProt A8MV65 140-154) (peptide) | > 500000 nM | – | – |
| (FLAG)3-delΩ^VGLL2 (full-length VGLL2 with the Ω-loop deleted) (from UniProt Q8N8G2-1 1-317) (natural protein) | – | – | fold reduction of co-IP (IP over input) against wt^TEAD4 with wt^VGLL2 [2]: 2 fold |
| Vg^298-337 (Vestigial Sd-binding domain without the putative β-strand) (from UniProt Q26366 298-337) (peptide) | – | – | Kd [3]: 61 nM |
| Ac-CVLFTYFQGDISSVVDEHFSRALS-NH2 [VGLL2^85-108 (β-strand:α-helix of human VGLL2)] | – | 590 nM | – |
| VGLL2^85-149 (β-strand:α-helix:Ω-loop of human VGLL2) (peptide) peptide: Ac-CVLFTYFQGDISSVVDEHFSRALSQPSSYSPSCTSSKAPRSSGPWRDCSFPMSQRSFPASFWNSA-NH2 | – | 34 nM | – |
| Ac-PMSQRSFPASFWNSA-NH2 [VGLL2^135-149 (Ω-loop region of human VGLL2)] | 133000 nM | – | – |

Now from value to molecule, other results behind:

| IC50 [1] | Kd [4] | Molecule | other results |
| --- | --- | --- | --- |
| 98000 nM | – | YAP^85-99 (Ω-loop of YAP) (from UniProt P46937 85-99) (peptide) | – |
| – | 4.1 nM | Ac-CVVFTNYSGDTASQVDEHFSRALNYNNKDSKESSSPMSNRNFPPSFWNSN-NH2 [Vg^288-337 (TONDU domain and Ω-loop of Vestigial)] | Kd [5]: 3.1 nM |
| 157000 nM | – | Ac-PMSNRNFPPSFWNSN-NH2 [Vg^323-337 (Ω-loop of Vestigial)] | – |
